In patent US20030138873A1, “Tissue engineered cartilage for drug discovery” (priority 2002, published 2003):

Assays:
[1] = system: engineered cartilage tissue; experiment: Cartilage matrix turnover measured using radiolabelling (35S-proteoglycan chase); format: cell-based, bovine; conditions: for T½ of 35S-PGs in the tissue (loss of 35S-PGs) / T½ of 35S-PGs, bimodal rate of disappearance from the tissue: IL-1α 1 ng/ml; for T½ of 35S-PGs in the tissue (loss of 35S-PGs): 7-day chase; for T½ of 35S-PGs, bimodal rate of disappearance from the tissue: double exponential decay fit
Experimental: (§1) Engineered Cartilage Tissue Formation: Engineered cartilage tissue was prepared as described in U.S. Pat. No. 6,197,061. Briefly, bovine articular chondrocytes were isolated from steer (14-18 months) and cultured in beads of 1.2% low viscosity alginate (Keltone LV, Kelco) at 4 million cells/ml in daily changes of medium containing 20% FBS, 25 μg/ml ascorbate and 10 μg/ml gentamicin, as described above in Mok, et al. On day 7, beads were dissolved by incubation for 20 minutes in 55 mM NaCitrate in 150 mM NaCl. The cells with their CM (cellular matrix) were recovered by mild centrifugation. The cells with their CM were resuspended in complete medium and seeded onto a tissue culture insert (0.4 μm pore size; 23 mm diameter, Falcon). After 7 and 21 days in culture, the de novo formed tissue was separated from the porous membrane and 4 mm diameter discs were punched out using a skin biopsy punch.
Discs of engineered cartilage tissue were punched out from engineered cartilage tissue on day 7 and 21 and were incubated for 16 h in complete medium containing ^35S-sulfate (20 μCi/ml). After washing to remove unincorporated radioisotope, the discs were cultured for 7 days in isotope-free medium with or without IL-1α (1 ng/ml). The medium in all cases was changed and collected for the measurement of ^35S-labeled proteoglycans (^35S-PGs). At various times, discs were collected and the content of ^35S-PGs in each disc and the corresponding spent medium fraction was measured by a rapid filtration assay (4). For each set of conditions (i.e. with or without IL-1α) the amount of radiolabeled PGs remaining in each matrix pool was plotted against time of chase to measure the average half-life of ^35S-PGs in each compartment. The data were fitted to the double exponential decay equation: y=ae^−bx+ce^−d+e and the half-life calculated based on b and d. Mok, et al., Aggrecan synthesized by mature bovine chondrocytes suspended in alginate: Identification of two distinct metabolic matrix pool, Biol. Chem., 269, 33021-33027 (1994)

[2] = system: engineered cartilage tissue; experiment: Cartilage matrix turnover measured without radiolabelling (PG content by DMMB method); format: cell-based, bovine
Experimental: as §1
Discs of engineered cartilage tissue was punched out from engineered cartilage tissue on day 7 and cultured for 5 days in complete medium with/without IL-1α (1 ng/ml). Engineered cartilage tissue was obtained as described above. On days 1, 2, 3 and 5, the discs were harvested and digested with papain. After digestion the contents of sulfated PG and DNA were measured by the DMMB method and Hoechst 33258-dye method, respectively. […]

[3] = tissue radiolabeled on day 7 [1W]
[4] = tissue radiolabeled on day 21 [3W]

B1: IL-1: cytokine interleukin-1 (IL-1α), known modulator inducing cartilage matrix degradation, used at 1 ng/ml (protein, UniProt P01583 113-271, looked up)
Interleukin-1 alpha: SAPFSFLSNVKYNFMRIIKYEFILNDALNQSIIRANDQYLTAAALHNLDEAVKFDMGAYKSSKDDAKITVILRISKTQLYVTAQDEDQPVLLKEMPEIPKTITGSETNLLFFWETHGTKNYFTSVAHPNLFIATKQDYWVCLAGGPPSITDFQILENQA
T½ of 35S-PGs in the tissue (loss of 35S-PGs) [1, 3]: 41.5 h
T½ of 35S-PGs, bimodal rate of disappearance from the tissue [1, 3]: 3.6 h
T½ of 35S-PGs in the tissue (loss of 35S-PGs) [1, 4]: 49.9 h
T½ of 35S-PGs, bimodal rate of disappearance from the tissue [1, 4]: 35.5 h
appearance in the medium of 35S-PGs ([1]; addition of IL-1 to the medium (1 ng/ml)): rapid increase
loss of the PGs from the engineered cartilage tissue ([2]; IL-1 at 1 ng/ml, single day of treatment, day 7 discs): 50%
loss of proteoglycan content of engineered cartilage matrix ([2]; within a single day after treatment with IL-1): roughly half
